Laboratory results reported in patent publication CN109957013A.
“And” between values parts separate entries of the source, which are not always exact repeats. Equal entries are not always repeated.

B1: 抗H7N9全人源单克隆抗体7O2 (antibody, V domains shown)
VH: EVQLVESGGGLVQPGGSLRLSCAASGFTFSSYWMHWVRQAPGKGLVWVSRINSDGSSTSYADSVKGRFTISRDNAKNTLYLQMNSLRAEDTAVYYCARRSKTGKFDPWGQGTLVTVSS
VL: SYELTQPPSVSVSPGQTARITCSGDALPKQYAYWYQQKPGQAPVLVIYKDSERPSGIPERFSGSSSGTTVTLTISGVQAEDEADYYCQSADSSGTLEVFGGGTKLTVLV

Experiments:
H7N9病毒的血凝素HA (H7N9病毒) [1] = experiment: ELISA, positive control well
H7N9病毒的血凝素HA (H7N9病毒) [2] = experiment: ELISA of 293F supernatant with recombinant 7O2

Row | Molecule | 450 (absorbance at 450 nm) (H7N9病毒的血凝素HA (H7N9病毒) [1]) | 450 (absorbance at 450 nm) (H7N9病毒的血凝素HA (H7N9病毒) [2])
1 | 阳性对照 | 1.15 (2×) and 1.21 | –
2 | B1 | – | 3 and 3.12 and 2.96
